Experiments:
Format in all cases: biochemical
Conditions in all cases: 30° C., pH 7.0
[1] = Specific activity of chondroitin synthase aqueous solution
Experimental: Reaction solution (11) was prepared by adding 10 μL of chondroitin synthase aqueous solution (B-2) obtained in Preparation 11 to 1 mL of aqueous solution T (50 mM phosphate buffer (pH of 7.0) containing 1 mM uridine diphosphate-glucuronic acid (^14C-labeled radioactive isotope-containing uridine diphosphate-glucuronic acid; radioactivity of 300 mCi/mmol), 1 mM uridine diphosphate-N-acetylgalactosamine, 100 mM sodium chloride, 10 mM magnesium chloride, 10 mM dodecylmaltoside, and 5 mM oleic acid). Three such reaction solutions (11) were prepared and allowed to react at 30° C. for 5 minutes, 10 minutes, and 15 minutes, respectively. Chondroitin was separated from the unreacted substrate by paper chromatography using filter paper. Subsequently, the origin was cut out and immersed in a liquid scintillation cocktail, and the radioactive isotope was then measured using a liquid scintillation counter. The yield of chondroitin was calculated from the amount of uptake of ^14C-labeled glucuronic acid. The results were 1.7 μg after 5 minutes, 3.1 μg after 10 minutes, and 4.4 μg after 15 minutes. The specific activity of chondroitin synthase aqueous solution (B-2) was calculated from the relationship between the yield of chondroitin and the reaction time. The result was 0.15 U/mL.

[2] = Activity of uridylyltransferase (G-1) to produce uridine diphosphate-glucuronic acid
Experimental: (§1) Reaction solution (10-1) was prepared by adding 10 μL of uridine triphosphate-monosaccharide-1-phosphate uridylyltransferase aqueous solution (G-1) obtained in Preparation 10 to 1 mL of aqueous solution (50 mM phosphate buffer (pH of 7.0) containing 100 mM sodium chloride, 10 mM magnesium chloride, 10 mM uridine triphosphate, and 10 mM N-acetylglucosamine-1-phosphate). Three such reaction solutions (10-1) were prepared and allowed to react at 30° C. for 5 minutes, 10 minutes, and 15 minutes, respectively. As for the quantity of the produced uridine diphosphate-N-acetylglucosamine, the product was detected with a UV light (260 nm) in HPLC. The activity of uridine triphosphate-monosaccharide-1-phosphate uridylyltransferase to produce uridine diphosphate-N-acetylglucosamine was determined from the amount of uridine diphosphate-N-acetylglucosamine production. The result was 0.1 U/mL.
The activity of uridine triphosphate-monosaccharide-1-phosphate uridylyltransferase to produce uridine diphosphate-glucuronic acid was determined in a similar manner as described above, except that an aqueous solution containing “10 mM glucuronic acid 1-phosphate” was used in place of “10 mM N-acetylglucosamine-1-phosphate” and “uridine diphosphate-glucuronic acid” was quantitated in place of “uridine diphosphate-N-acetylglucosamine”. The result was 5 U/μL.

[3] = Activity of uridylyltransferase (G-1) to produce uridine diphosphate-N-acetylglucosamine
Experimental: as §1

[4] = Specific activity of hyaluronan synthase aqueous solution (14C-glucuronic acid uptake)
Experimental: Reaction solution (1) was prepared by adding 10 μL of hyaluronan synthase aqueous solution (B-1) obtained in Preparation 1 to 1 mL of aqueous solution S (50 mM phosphate buffer (pH of 7.0) containing 1 mM uridine diphosphate-glucuronic acid (labeled radioactive radioactivity of 300 mCi/mmol), 1 mM uridine diphosphate-N-acetylglucosamine, 100 mM sodium chloride, 10 mM magnesium chloride, 10 mM dodecylmaltoside, and 5 mM oleic acid). Four such reaction solutions (1) were prepared and allowed to react at 30° C. for 5 minutes, 10 minutes, 15 minutes, and 20 minutes, respectively. Hyaluronan was separated from the unreacted substrate by paper chromatography (developing solvent containing 1 M ammonium acetate (pH of 5.5) and ethanol at a 7:13 ratio, hereinafter the same) using filter paper (Whatman No. 3 MM, hereinafter the same), and then the origin was cut out and immersed in a liquid scintillation cocktail. The radioactive isotope was then measured using a liquid scintillation counter. The amount of hyaluronan synthesis was calculated from the amount of uptake of ^14C-labeled glucuronic acid. The results were 1.6 mg after 5 minutes, 2.9 mg after 10 minutes, 4.2 mg after 15 minutes, and 5.5 mg after 20 minutes. The specific activity of hyaluronan synthase aqueous solution (B-1) was calculated from the relationship between the amount of hyaluronan synthesis and the reaction time. […]

[5] = Specific activity of starch synthase aqueous solution
Experimental: Reaction solution (13) was prepared by adding 10 μL of starch synthase aqueous solution (B-4) obtained in Preparation 13 to 1 mL of aqueous solution V (50 mM phosphate buffer (pH of 7.0) containing 100 mM uridine diphosphate-α-glucose (^14C-labeled radioactive isotope-containing uridine diphosphate-α-glucose; radioactivity of 300 mCi/mmol), 100 mM sodium chloride, 10 mM magnesium chloride, and 5 mM oleic acid). Four such solutions (13) were prepared and allowed to react at 30° C. for 5 minutes, 10 minutes, 15 minutes, and 20 minutes, respectively. Starch was separated from the unreacted substrate by paper chromatography using filter paper, and then the origin was cut out and immersed in a liquid scintillation cocktail. The radioactive isotope was then measured using a liquid scintillation counter. The yield of starch was calculated from the amount of uptake of ^14C-labeled glucose. The results were 1.3 mg after 5 minutes, 2.5 mg after 10 minutes, 3.8 mg after 15 minutes, and 5.2 mg after 20 minutes. The specific activity of starch synthase aqueous solution (B-4) was calculated from the relationship between the yield of starch and the reaction time. The result was 0.15 U/μL.

B1: chondroitin synthase aqueous solution (B-2): chondroitin synthase, SEQ ID NO: 11, derived from Pasteurella multocida (protein, listed as Pasteurella multocida)
chain: MNTLSQAIKAYNSNDYELALKLFEKSAETYGRKIVEFQIIKCKEKLSTNSYVSEDKKNSVCDSSLDIATQLLLSNVKKLTLSESEKNSLKNKWKSITGKKSENAEIRKVELVPKDFPKDLVLAPLPDHVNDFTWYKNRKKSLGIKPVNKNIGLSIIIPTFNRSRILDITLACLVNQKTNYPFEVVVADDGSKENLLTIVQKYEQKLDIKYVRQKDYGYQLCAVRNLGLRTAKYDFVSILDCDMAPQQLWVHSYLTELLEDNDIVLIGPRKYVDTHNITAEQFLNDPYLIESLPETATNNNPSITSKGNISLDWRLEHFKKTDNLRLCDSPFRYFSCGNVAFSKEWLNKVGWFDEEFNHWGGEDVEFGYRLFAKGCFFRVIDGGMAYHQEPPGKENETDREAGKSITLKIVKEKVPYIYRKLLPIEDSHIHRIPLVSIYIPAYNCANYIQRCVDSALNQTVVDLEVCICNDGSTDNTLEVINKLYGNNPRVRIMSKPNGGIASASNAAVSFAKGYYIGQLDSDDYLEPDAVELCLKEFLKDKTLACVYTTNRNVNPDGSLIANGYNWPEFSREKLTTAMIAHHFRMFTIRAWHLTDGFNENIENAVDYDMFLKLSEVGKFKHLNKICYNRVLHGDNTSIKKLGIQKKNHFVVVNQSLNRQGINYYNYDKFDDLDESRKYIFNKTAEYQEEMDILKDLKLIQNKDAKIAVSIFYPNTLNGLVKKLNNIIEYNKNIFVIILHVDKNHLTPDIKKEILAFYHKHQVNILLNNDISYYTSNRLIKTEAHLSNINKLSQLNLNCEYIIFDNHDSLFVKNDSYAYMKKYDVGMNFSALTHDWIEKINAHPPFKKLIKTYFNDNDLRSMNVKGASQGMFMKYALPHELLTIIKEVITSCQSIDSVPEYNTEDIWFQFALLILEKKTGHVFNKTSTLTYMPWERKLQWTNEQIQSAKKGENIPVNKFIINSITL
modifications: aqueous solution
Molecule B1 has a specific activity [1] of 0.15 U/mL.

B2: uridine triphosphate-monosaccharide-1-phosphate uridylyltransferase aqueous solution (G-1): uridylyltransferase, SEQ ID NO: 10, derived from Arabidopsis (protein)
chain: MASTVDSNFFSSVPALHSNLGLLSPDQIELAKILLENGQSHLFQQWPELGVDDKEKLAFFDQIARLNSSYPGGLAAYIKTAKELLADSKVGKNPYDGFSPSVPSGENLTFGTDNFIEMEKRGVVEARNAAFVLVAGGLGERLGYNGIKVALPRETTTGTCFLQHYIESILALQEASNKIDSDGSERDIPFIIMTSDDTHSRTLDLLELNSYFGMKPTQVHLLKQEKVACLDDNDARLALDPHNKYSIQTKPHGHGDVHSLLYSSGLLHKWLEAGLKWVLFFQDTNGLLFNAIPASLGVSATKQYHVNSLAVPRKAKEAIGGISKLTHVDGRSMVINVEYNQLDPLLRASGFPDGDVNCETGFSPFPGNINQLILELGPYKDELQKTGGAIKEFVNPKYKDSTKTAFKSSTRLECMMQDYPKTLPPTARVGFTVMDIWLAYAPVKNNPEDAAKVPKGNPYHSATSGEMAIYRANSLILQKAGVKVEEPVKQVLNGQEVEVWSRITWKPKWGMIFSDIKKKVSGNCEVSQRSTMAIKGRNVFIKDLSLDGALIVDSIDDAEVKLGGLINNGWTMESVDYKDTSVPEEIRIRGFRFNKVEQLEKKLTQPGKFSVED
modifications: aqueous solution; Arabidopsis
For B2, the “activity to produce uridine diphosphate-glucuronic acid” value [2] was 5 U/μL and the “activity to produce uridine diphosphate-N-acetylglucosamine” value [3] was 0.1 U/mL.

B3: hyaluronan synthase aqueous solution (B-1): FLAG-tagged hyaluronan synthase, SEQ ID NO: 1, from Streptococcus equisimilis, expressed in E. coli (protein)
chain: MPIFKKTLIVLSFIFLISILIYLNMYLFGTSTVGIYGVILITYLVIKLGLSFLYEPFKGNPHDYKVAAVIPSYNEDAESLLETLKSVLAQTYPLSEIYIVDDGSSNTDAIQLIEEYVNREVDICRNVIVHRSLVNKGKRHAQAWAFERSDADVFLTVDSDTYIYPNALEELLKSFNDETVYAATGHLNARNRQTNLLTRLTDIRYDNAFGVERAAQSLTGNILVCSGPLSIYRREVIIPNLERYKNQTFLGLPVSIGDDRCLTNYAIDLGRTVYQSTARCDTDVPFQLKSYLKQQNRWNKSFFRESIISVKKILSNPIVALWTIFEVVMFMMLIVAIGNLLFNQAIQLDLIKLFAFLSIIFIVALCRNVHYMVKHPASFLLSPLYGILHLFVLQPLKLYSLCTIKNTEWGTRKKVTIFK
modifications: FLAG tag; aqueous solution; STREPTOCOCCUS
B3 showed a specific activity [4] of 0.15 U/μL.

B4: starch synthase aqueous solution (B-4): starch synthase, SEQ ID NO: 13, derived from Saccharomyces cerevisiae (protein, listed as Saccharomyces cerevisiae)
chain: MSRDLQNHLLFETATEVANRVGGIYSVLKSKAPITVAQYKDHYHLIGPLNKATYQNEVDILDWKKPEAFSDEMRPVQHALQTMESRGVHFVYGRWLIEGAPKVILFDLDSVRGYSNEWKGDLWSLVGIPSPENDFETNDAILLGYTVAWFLGEVAHLDSQHAIVAHFHEWLAGVALPLCRKRRIDVVTIFTTHATLLGRYLCASGSFDFYNCLESVDVDHEAGRFGIYHRYCIERAAAHSADVFTTVSQITAFEAEHLLKRKPDGILPNGLNVIKFQAFHEFQNLHALKKEKINDFVRGHFHGCFDFDLDNTLYFFIAGRYEYKNKGADMFIEALARLNYRLKVSGSKKTVVAFIVMPAKNNSFTVEALKGQAEVRALENTVHEVTTSIGKRIFDHAIRYPHNGLTTELPTDLGELLKSSDKVMLKRRILALRRPEGQLPPIVTHNMVDDANDLILNKIRQVQLFNSPSDRVKMIFHPEFLNANNPILGLDYDEFVRGCHLGVFPSYYEPWGYTPAECTVMGVPSITTNVSGFGAYMEDLIETNQAKDYGIYIVDRRFKAPDESVEQLVDYMEEFVKKTRRQRINQRNRTERLSDLLDWKRMGLEYVKARQLALRRGYPDQFRELVGEELNDSNMDALAGGKKLKVARPLSVPGSPRDLRSNSTVYMTPGDLGTLQEVNNADDYFSLGVNPAADDDDDGPYADDS
B4 showed a specific activity [5] of 0.15 U/μL.

Source: patent US9670514B2, “Method for producing polysaccharide” (SANYO CHEMICAL INDUSTRIES, LTD., priority 2011, dated 2017)
